According to PMC7969954, “Pol α-primase dependent nuclear localization of the mammalian CST complex” (Communications Biology, 2021):

Target: T1, STN1-TEN1 complex (human, UniProt Q9H668 1-368; Q86WV5 1-123)
T1 construct: STN1, human, full length (flSTN1); TEN1, human, full length (flTEN1); source: E. coli ScarabXpress T7 lac, co-lysed, purified as a complex (Ni-NTA, amylose, HS and HQ)
T1 sequence (looked up) 1: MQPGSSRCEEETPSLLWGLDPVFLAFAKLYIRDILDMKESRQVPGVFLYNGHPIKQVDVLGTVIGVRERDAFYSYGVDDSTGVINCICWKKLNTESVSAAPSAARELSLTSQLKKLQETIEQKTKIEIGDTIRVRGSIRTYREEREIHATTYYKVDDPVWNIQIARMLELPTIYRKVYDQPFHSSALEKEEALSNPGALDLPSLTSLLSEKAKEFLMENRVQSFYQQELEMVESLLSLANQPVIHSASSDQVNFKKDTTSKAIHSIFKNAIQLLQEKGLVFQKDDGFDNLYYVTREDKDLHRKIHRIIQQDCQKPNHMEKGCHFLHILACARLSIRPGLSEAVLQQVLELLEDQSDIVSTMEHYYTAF
T1 sequence (looked up) 2: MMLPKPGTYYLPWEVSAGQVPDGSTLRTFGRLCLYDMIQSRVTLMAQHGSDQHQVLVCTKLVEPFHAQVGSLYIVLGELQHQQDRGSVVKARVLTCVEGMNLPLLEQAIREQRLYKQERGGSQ
Assay: pull-down; purified STN1-TEN1 complex incubated with purified CTC1 (1002-end) at 4 °C; complex bound to an amylose column and analysed by SDS-PAGE
Conditions: both partners purified

B1: CTC1 (1002-end) (domain or fragment, human, UniProt Q2NKJ3 1002-1217, looked up)
chain: TISIPLPHIYLAELLQGGQSPFQATASCHIVSVFSLQLFWVCAYCTSICRQGKCTRLGSTCPTQTAISQAIIRLLVEDGTAEAVVTCRNHHVAAALGLCPREWASLLDFVQVPGRVVLQFAGPGAQLESSARVDEPMTMFLWTLCTSPSVLRPIVLSFELERKPSKIVPLEPPRLQRFQCGELPFLTHVNPRLRLSCLSIRESEYSSSLGILASSC
notes: CTC1, human, residues 1002-end; also called CTC1 residues 1002-end; source: E. coli ScarabXpress T7 lac, purified (Ni-NTA, HS and HQ)
binding result: binds
